Measured values: US12077576 (TRUSTEES OF TUFTS COLLEGE, dated 2024)

Tests used:
[1] = molecular target: T1, Clostridium difficile toxin B (TcdB) (Clostridium difficile, UniProt P18177 2-2366); test: cell-based or functional assay
[2] = molecular target: T1, Clostridium difficile toxin B (TcdB); test: ELISA, VHH dilution series on plate-coated rTcdB, anti-E-tag-HRP detection
[3] = molecular target: T1, Clostridium difficile toxin B (TcdB); test: cell-based or functional assay; remark: listed apart in the source

T1 sequence (P18177 2-2366): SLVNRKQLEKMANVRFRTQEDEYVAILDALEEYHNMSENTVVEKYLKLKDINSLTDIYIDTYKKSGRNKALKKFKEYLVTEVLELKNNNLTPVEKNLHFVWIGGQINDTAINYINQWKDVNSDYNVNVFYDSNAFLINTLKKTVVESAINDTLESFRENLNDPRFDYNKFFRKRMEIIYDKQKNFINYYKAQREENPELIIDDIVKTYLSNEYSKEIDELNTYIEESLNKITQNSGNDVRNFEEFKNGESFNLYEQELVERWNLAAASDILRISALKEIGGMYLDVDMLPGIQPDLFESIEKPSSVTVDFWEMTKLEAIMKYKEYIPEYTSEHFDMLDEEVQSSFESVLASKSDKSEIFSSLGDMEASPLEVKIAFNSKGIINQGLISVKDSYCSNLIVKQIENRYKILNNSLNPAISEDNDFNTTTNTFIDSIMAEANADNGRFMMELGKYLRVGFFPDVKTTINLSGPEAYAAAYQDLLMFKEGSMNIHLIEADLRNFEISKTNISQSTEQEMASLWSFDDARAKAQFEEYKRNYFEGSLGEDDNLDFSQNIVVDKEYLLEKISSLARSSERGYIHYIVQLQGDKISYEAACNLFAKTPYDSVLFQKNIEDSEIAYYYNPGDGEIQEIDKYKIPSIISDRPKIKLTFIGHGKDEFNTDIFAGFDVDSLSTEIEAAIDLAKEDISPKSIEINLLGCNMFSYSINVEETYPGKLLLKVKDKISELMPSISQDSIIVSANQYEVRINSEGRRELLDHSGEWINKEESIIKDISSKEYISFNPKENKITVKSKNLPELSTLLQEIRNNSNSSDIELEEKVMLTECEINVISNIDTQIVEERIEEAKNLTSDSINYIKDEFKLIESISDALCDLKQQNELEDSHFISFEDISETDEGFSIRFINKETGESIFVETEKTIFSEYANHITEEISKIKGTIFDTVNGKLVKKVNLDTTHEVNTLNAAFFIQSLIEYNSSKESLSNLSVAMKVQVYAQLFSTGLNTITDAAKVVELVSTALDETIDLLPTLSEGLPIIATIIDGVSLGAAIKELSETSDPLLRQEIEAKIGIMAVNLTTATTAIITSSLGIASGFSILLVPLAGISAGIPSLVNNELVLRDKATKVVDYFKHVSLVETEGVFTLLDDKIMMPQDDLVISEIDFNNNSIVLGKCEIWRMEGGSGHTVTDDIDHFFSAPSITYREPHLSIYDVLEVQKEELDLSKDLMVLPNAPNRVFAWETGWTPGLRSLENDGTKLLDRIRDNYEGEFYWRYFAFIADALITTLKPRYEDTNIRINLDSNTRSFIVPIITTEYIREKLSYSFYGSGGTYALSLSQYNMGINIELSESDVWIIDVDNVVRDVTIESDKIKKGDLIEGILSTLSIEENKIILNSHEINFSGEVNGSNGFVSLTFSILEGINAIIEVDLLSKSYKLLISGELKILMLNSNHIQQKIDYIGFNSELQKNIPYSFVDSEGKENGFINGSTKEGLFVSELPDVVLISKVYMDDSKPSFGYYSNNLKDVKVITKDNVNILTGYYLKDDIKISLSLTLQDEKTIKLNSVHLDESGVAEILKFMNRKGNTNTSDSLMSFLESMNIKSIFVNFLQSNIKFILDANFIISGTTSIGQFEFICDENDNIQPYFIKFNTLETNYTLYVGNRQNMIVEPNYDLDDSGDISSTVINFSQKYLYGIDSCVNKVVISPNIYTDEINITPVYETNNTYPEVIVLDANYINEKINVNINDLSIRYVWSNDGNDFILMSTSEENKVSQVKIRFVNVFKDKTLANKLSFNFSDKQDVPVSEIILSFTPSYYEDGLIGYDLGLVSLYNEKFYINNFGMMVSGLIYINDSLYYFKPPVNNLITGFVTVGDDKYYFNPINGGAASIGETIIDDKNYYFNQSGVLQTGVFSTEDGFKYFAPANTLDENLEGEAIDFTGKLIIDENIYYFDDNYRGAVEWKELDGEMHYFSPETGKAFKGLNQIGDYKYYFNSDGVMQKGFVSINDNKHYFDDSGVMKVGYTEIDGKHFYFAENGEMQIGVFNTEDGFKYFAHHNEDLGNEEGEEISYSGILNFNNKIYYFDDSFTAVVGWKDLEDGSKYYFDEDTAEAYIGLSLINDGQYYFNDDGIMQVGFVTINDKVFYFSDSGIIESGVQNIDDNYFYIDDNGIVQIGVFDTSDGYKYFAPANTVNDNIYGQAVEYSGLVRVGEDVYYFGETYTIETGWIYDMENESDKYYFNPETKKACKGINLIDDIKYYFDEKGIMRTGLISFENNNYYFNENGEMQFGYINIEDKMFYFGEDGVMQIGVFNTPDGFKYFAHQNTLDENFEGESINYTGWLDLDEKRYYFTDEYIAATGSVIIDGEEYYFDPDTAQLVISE

Row | Binder | Apparent potency, (IC50); TcdB neutralization, Vero cell rounding assay [1] [nM] | EC50 [2] [nM] | IC50 TcdB-neutralization potency (FIG. 1), Vero cell rounding assay [3] [nM]
1 | JZS-A2a (XAF-1) anti-TcdB VHH (VHH) VHH: QVQLAESGGGLVQAGGSLRLSCAASGSVYTFMGWYRQAPGKTRELVAGISGGTITKYADSVKGRFIISRDSPKNTIYLQMNELKVEDTGVYYCNAGDTIAQAMGTRRFPFDRWGQGTQVTVAS | > 25 | > 25 | 
2 | JZS-H9 (XAF-14) anti-TcdB VHH (VHH, also called JZX-H9) VHH: QVQLVESGGGLVQPGGSLTINCTVSGTAFSLDTMTWYRQAPGKQRELAADISSSGASNYLASVKGRFTISRDNAKSALYLQMNSLKPEDTGTYYCYRGRVRGVWPLDSGMMYWGKGTLVTVSS | 15 | 1 | 
3 | JZT-F7 (XAG-1) anti-TcdB VHH (VHH) VHH: QVQLVETGGGLVQAGGSLRLSCAASGSILSSMGWYRQAPGNQREFVASISRTGATDYADSVAGRFIISRDRGKNTVLALQMDSLKPEDTAVYYCNAGLGMGDPRRPGPWWGQGTQVTVSS | 1 | 3 | 
4 | JZT-G9 (XAG-7) anti-TcdB VHH (VHH) VHH: QVQLAETGGGLVQAGGSLRLSCVSSERNPGINAMGWYRQAPGSQRELVAVWQTGGSLSYADSVKGRFTISRDNLKNTVYLQMNSLKPEDAAVYYCYLKKWRDQYWGQGTRVTVSS | 3 | 0.1 | 
5 | JZS-E4 (XAF-10) anti-TcdB VHH (VHH, also called JZX-E4) VHH: QVQLVESGGGLAQAGGSLRLSCAASGSSFSMNVMGWYRQPPGKQRELVATIRSDGITNYAESVKGRFTISRDNVKNTVHLEMNRLKAEDTAVYYCFHGRARTGNNADLGSWGQGTQVTVSS | 1 | 2 | ~0.5
6 | JZS-B2 (XAF-4) anti-TcdB VHH (VHH) VHH: QVQLAESGGGLVQAGGSLRLSCVGSGTSFPRNYMGWYRQAPGKQRELVAAISHDGNVEYADSVKGRFTISRGNFVNTVALQMNSLKSEDTAVYYCKLVTLRRDEYWGQGTQVTVSS | > 125 | 0.3 | 
7 | JZS-B9 (XAF-5) anti-TcdB VHH (VHH) VHH: QLQLVESGGGLVQPGGSLRLSCTSARFSLINYAIGWFRQAPGQKREGVSLLTSGGATYYADSARDRFTISRDNARNTVYLQMNSLKPEDTAVYSCAAGPYSRTLVSRWKVGDGMEYWGKGTLVTVSS | 1 | 0.2 | 
8 | JZS-C2 (XAF-6) anti-TcdB VHH (VHH) VHH: QVQLAESGGGLVQPGGSLRLSCAASGFTSNSYYIGWFRQAPGKGREAVSSISSSGGSPNYANAVKGRFTITRDNANNTVYLQMDNLKPEDTAVYYCAASKFPLTTMASNRYHYWGQGTQVTVSS | 0.5 | 3 | 
9 | JZS-C10 (XAF-9) anti-TcdB VHH (VHH) VHH: QLQLVETGGLVQAGGSLRLSCVGSGRGPGINVMGWYRQAPGTERELVATWQTGGTTNYADSVKGRFTISRDNLKNTVSLQMDSLKPEDTAVYYCYLKKWRDEYWGQGTQVTVSS | 0.5 | 0.1 | 
10 | JZS-E6 (XAF-11) anti-TcdB VHH (VHH) VHH: QVQLAETGGGLVQAGGSLRLSCAASGRLSERIFMISTMAWYRQVPGKQRELVAEISRLGRANYSDSVTDRFIISRDNTKNTVDLQMNSLKPEDTAVYYCNLKPFVDNYRGPGTQVTVSS | 1 | 0.8 | 
11 | JZS-F6 (XAF-12) anti-TcdB VHH (VHH) VHH: QLQLAESGGGLVQPGGSLRLSCAASGITFSNVAMSWVRQAPGKGLEWVSTISTGGSSTSYLDSVKSRFTISRDNAKKTVYLQMNSLKPEDTAVYYCVKGPKYSATIRRPEGQGTQVTVSS | 0.5 | 0.1 | 
12 | JZS-H4 (XAF-13) anti-TcdB VHH (VHH) VHH: QLQLVESGGGLVQPGGSLRLSCVASGFNFSVQIMSWVRQAPGKGLEWVSAISTGGASKSYADFAKGRFTISRDNAKNTLYLQMNSLQLEDTAVYFCSKGPRTWINSSPRGQGTQVTVSS | 0.5 | 0.2 | 
